Test results reported in patent publication US20060252677A1.

Biological target: NMDA receptor (NMDA receptor/2B subunit and NMDA receptor I) expressed in Xenopus oocytes (human) (UniProt Q13224)
Test: cell-based or functional assay

Chain of Protein-X (novel PSD) expressed from injected RNA in Xenopus oocytes (Q5T2T1 whole entry K322R): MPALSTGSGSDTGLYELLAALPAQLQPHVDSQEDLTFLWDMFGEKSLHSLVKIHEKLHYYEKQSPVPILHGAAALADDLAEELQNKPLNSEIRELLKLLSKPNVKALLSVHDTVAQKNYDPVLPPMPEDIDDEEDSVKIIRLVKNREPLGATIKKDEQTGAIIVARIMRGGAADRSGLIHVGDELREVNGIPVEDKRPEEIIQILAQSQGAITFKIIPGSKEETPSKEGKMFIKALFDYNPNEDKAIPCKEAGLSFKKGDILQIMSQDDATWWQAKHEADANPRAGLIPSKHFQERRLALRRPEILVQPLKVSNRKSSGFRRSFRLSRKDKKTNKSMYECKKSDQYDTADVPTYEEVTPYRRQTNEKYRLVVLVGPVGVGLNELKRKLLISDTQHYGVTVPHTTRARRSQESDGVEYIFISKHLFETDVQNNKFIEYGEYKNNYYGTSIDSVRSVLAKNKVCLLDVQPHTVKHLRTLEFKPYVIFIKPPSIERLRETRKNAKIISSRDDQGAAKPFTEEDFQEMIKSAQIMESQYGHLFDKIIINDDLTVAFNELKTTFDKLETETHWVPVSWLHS

Current variation (µA), Average: 0.55 µA
Current variation (µA), Standard deviation: 0.15 µA
Current variation (µA), oocyte #1, 1000 µM Glu + 10 µM Gly: 0.6 µA
Current variation (µA), oocyte #2, 1000 µM Glu + 10 µM Gly: 0.81 µA
Current variation (µA), oocyte #3, 1000 µM Glu + 10 µM Gly: 0.38 µA
Current variation (µA), oocyte #4, 1000 µM Glu + 10 µM Gly: 0.57 µA
Current variation (µA), oocyte #5, 1000 µM Glu + 10 µM Gly: 0.41 µA
Current variation (µA), oocyte #6, 1000 µM Glu + 10 µM Gly: 0.54 µA
current response to the ligand stimulation, against oocytes expressing PSD-95 with the NMDA receptor: 1.5 times
Substance: Protein-X (novel PSD) expressed from injected RNA in Xenopus oocytes (from UniProt Q5T2T1 1-576)
